According to patent US20200131263A1:

Target: cynomolgus GITR (cyno-GITR) (cynomolgus)
Experiment: ELISA, cyno GITR coated at 1 ug/ml

- EC50: 0.269 nM
Substance: reference antibody BMAB (Merck's MK-4166 antibody)
